Several values for one entry are separate records, joined by “and”; a condition that tells them apart may be missing. Identical values can stand only once.
What was measured:
[1] = molecular target: T1, HSA (Homo sapiens, UniProt P02768); test: HSA binding on Chiralpak HSA column; type: in vitro ADME; settings: Chiralpak HSA column (50 × 3 mm, 5 μm), (n = 6)
T1 construct: purchased H13H-2433
Description: The mobile phase (A: NH4OAc, 50 mM in water, pH 7 and B: isopropanol) was freshly prepared for each experiment and only used for one day. The column was kept at room temperature and each run was stopped after detection of the signal to reduce the acquisition time. All substances were dissolved in a 0.5 mg/ml concentration in 50% 2-propanol and 50% 50 mM pH 6.9 ammonium acetate buffer. […] All nine reference substances were injected consecutively to establish a non-linear regression with Origin Pro 2016G.

[2] = Octanol-water partition coefficient (n-octanol/PBS pH 7.4); type: physicochemical
Description: Approximately 1 MBq of the labeled tracer was dissolved in 1 mL of a 1:1 mixture (by volumes) of phosphate buffered saline (PBS, pH 7.4) and n-octanol in an Eppendorf tube. After vigorous mixing of the suspension for 3 minutes at room temperature, the vial was centrifuged at 15000 g for 3 minutes (Biofuge 15, Heraus Sepatech, Osterode, Germany) and 100 μL aliquots of both layers were measured in a gamma counter. The experiment was repeated at least six times.
Determianation of the logP values was carried out in phosphate buffered saline (PBS, pH 7.4) and n-octanol (=logPoct/PBS).

[3] = Preclinical dosimetry in SCID mice, extrapolated to 70-kg Standard Adult (OLINDA/EXM 1.0); type: in vivo; settings: extrapolated from mice
Description: 3-5 mice were injected per timepoint with a mean 25.6±3.6 MBq of 18F-rhPSMA-7 and 28.5±4.8 MBq of 18F-rhPSMA-7.3, respectively. Mice, severe combined immunodeficiency (SCID) were used for the experiments.
Urine, blood, heart, lung, spleen, pancreas, liver, stomach (emptied), small intestine (emptied), large intestine (emptied), kidneys, bladder, testis, fat, muscle (partial, femoral), femur, tail and brain. Urine was collected with a pipette in the CO2 gas chamber. In case of missing urination in the chamber the bladder was aspirated with an insulin syringe. Blood was withdrawn instantly after sacrifice with an insulin syringe from the heart. All other tissues and organs were dissected and transferred directly in plastic containers.
The counting rates of measurement samples were automatically corrected for decay. The radioactivity distribution ratios (unit: percentage of the injected dose (% ID) in the measurement samples were determined using the equation below. The sum of the counting rates from all measurement samples obtained from one mouse was designated as the counting rate for administrated radioactivity.
For consistency of statistical calculations for each radiotracer the same number of time-points for ^18F-rhPSMA-7 and ^18F-rhPSMA-7.3 was used. Therefore, for ^18F-rhPSMA-7 the 10 min and 20 min time points were combined creating a 15 min endpoint.
In brief, to calculate a human dosimetry from the biodistribution in the mice, an extrapolation was necessary to account for the differences between the animals and humans. Normal-organ radiation doses were estimated for the 70-kg Standard Adult anatomic model using time-depending organ activity concentrations (in percent of the injected dose per gram, % ID/g) and total-body activities measured in the biodistribution studies in mice.
Tissue activity concentrations in mice were converted to tissue fractional activities in the 70-kg Standard Adult using the relative fractional organ masses in the Standard Adult and the “standard” 25-gramm mouse. Time-dependent total-body activity was fit to an exponential function and the difference between the injected activity and the total-body activity was assumed to be excreted to the urine because activity concentrations in the liver and GI tracer were low at all time points studied.
Organ residence time was calculated by numerical integration using the trapezoidal rule and the rest-of-body ^18F residence times was calculated as the difference between the total-body residence time and the sum of the organ and urine residence times. The bladder contents residence time was estimated using the dynamic voiding model in the OLINDA/EXM 1.0 dosimetry software. Finally, the Standard Adult mean organ dose equivalents (in mSv/MBq) and effective dose (also in mSv/MBq) were then calculated using OLINDA/EXM 1.0.

[4] = Human biodistribution and uptake in tumor lesions, PET/CT SUV; type: in vivo; settings: for ratio SUVmax to background, max / ratio SUVmax to background, mean / ratio SUVmax to background, min / ratio SUVmean to background, max / ratio SUVmean to background, mean / ratio SUVmean to background, min: human PET/CT, background gluteal muscle
Description: Human biodistribution was estimated by analysing clinical ^18F-rhPSMA-7- and ^18F-rhPSMA-7.3-PET/CT exams in 47 and 32 patients, respectively.
The mean and maximum standardized uptake values (SUVmean/SUVmax) were determined for background (gluteal muscle), normal organs (salivary glands, blood pool, lung, liver, spleen, pancreas, duodenum, kidney, bladder, bone) and three representative tumor lesions. Tumor uptake was analyzed in 89 lesions (26 primary tumors/local recurrences, 23 bone, 38 lymph node and 2 visceral metastases) and 63 lesions (14 primary tumors/local recurrences, 30 bone, 18 lymph node and 1 visceral metastases) for ^18F-rhPSMA-7 and ^18F-rhPSMA-7.3, respectively.
Organ-background and Tumor-background ratios were calculated.

[5] = patients, PET/CT, gluteal muscle
[6] = patients, PET/CT, listed as 18F-rhPSMA-7.3

T1 sequence (P02768 25-609): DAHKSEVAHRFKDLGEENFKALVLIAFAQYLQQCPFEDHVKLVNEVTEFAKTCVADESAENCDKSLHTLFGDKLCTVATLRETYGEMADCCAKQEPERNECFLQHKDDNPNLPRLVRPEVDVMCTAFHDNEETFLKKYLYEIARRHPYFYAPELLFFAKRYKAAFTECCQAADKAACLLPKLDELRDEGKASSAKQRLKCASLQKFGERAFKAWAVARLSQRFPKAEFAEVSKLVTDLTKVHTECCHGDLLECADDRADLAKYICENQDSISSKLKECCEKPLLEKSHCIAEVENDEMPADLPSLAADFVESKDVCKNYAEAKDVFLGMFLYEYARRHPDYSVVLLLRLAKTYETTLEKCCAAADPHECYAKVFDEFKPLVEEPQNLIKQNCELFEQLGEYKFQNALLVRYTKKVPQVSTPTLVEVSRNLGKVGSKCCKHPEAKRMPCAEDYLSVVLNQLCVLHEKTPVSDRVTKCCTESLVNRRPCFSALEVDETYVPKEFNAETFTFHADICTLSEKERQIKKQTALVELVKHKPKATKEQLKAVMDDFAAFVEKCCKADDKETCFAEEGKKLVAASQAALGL

## CC(C)(C)[Si](F)(c1ccc(C(=O)NC[C@@H](NC(=O)CC[C@@H](C(=O)O)N2CCN(CC(=O)O)CCN(CC(=O)O)CCN(CC(=O)O)CC2)C(=O)N[C@H](CCCCNC(=O)CCC(=O)NCCC[C@@H](NC(=O)CC[C@H](NC(=O)N[C@@H](CCC(=O)O)C(=O)O)C(=O)O)C(=O)O)C(=O)O)cc1)C(C)(C)C [rhPSMA7.3, [^19F][^natGa]D-Dap-S-DOTAGA-rhPSMA7, metal not drawn]
[1]
  HSA Binding: 96.9%
[2]; n-octanol/PBS, pH 7.4, octanol/PBS7.4, mean of individual measurements, read-out: log P Mean
  logP: -3.26
[2]; octanol/PBS7.4, single measurements
  individual log P measurements: −3.02 and −3.06 and −3.07 and −2.86 and −3.39 and −3.33 and −3.34 and −3.20 and −3.40 and −3.41 and −3.48 and −3.49 and −3.32 and −3.45 and −3.53 and −3.43 and −3.56 and −3.03 and −3.08
[3]; 1.0 h bladder voiding interval
  Effective Dose: 1.28E−02 mSv/MBq
  Effective Dose Equivalent: 1.85E−02 mSv/MBq
[3]; […] bladder voiding interval
  Effective Dose: 2.17E−02 mSv/MBq
  Effective Dose Equivalent: 2.94E−02 mSv/MBq
[4]; bladder
  ratio SUVmax to background, max: 5.5
  ratio SUVmax to background, mean: 3.1
  ratio SUVmax to background, min: 0.9
  ratio SUVmean to background, max: 6.8
  ratio SUVmean to background, mean: 3.1
  ratio SUVmean to background, min: 0.9
[4]; bloodpool
  ratio SUVmax to background, max: 5.2
  ratio SUVmax to background, mean: 2.8
  ratio SUVmax to background, min: 1.5
  ratio SUVmean to background, max: 4.9
  ratio SUVmean to background, mean: 2.9
  ratio SUVmean to background, min: 1.7
[4]; bone
  ratio SUVmax to background, max: 3.2
  ratio SUVmax to background, mean: 2.0
  ratio SUVmax to background, min: 1.1
  ratio SUVmean to background, max: 3.6
  ratio SUVmean to background, mean: 2.1
  ratio SUVmean to background, min: 1.0
[4]; duodenum
  ratio SUVmax to background, max: 34.3
  ratio SUVmax to background, mean: 16.2
  ratio SUVmax to background, min: 6.9
  ratio SUVmean to background, max: 39.4
  ratio SUVmean to background, mean: 17.1
  ratio SUVmean to background, min: 4.7
[4]; kidney
  ratio SUVmax to background, max: 93.0
  ratio SUVmax to background, mean: 51.8
  ratio SUVmax to background, min: 25.7
  ratio SUVmean to background, max: 95.5
  ratio SUVmean to background, mean: 55.6
  ratio SUVmean to background, min: 27.6
[4]; liver
  ratio SUVmax to background, max: 19.0
  ratio SUVmax to background, mean: 9.7
  ratio SUVmax to background, min: 4.0
  ratio SUVmean to background, max: 20.7
  ratio SUVmean to background, mean: 11.4
  ratio SUVmean to background, min: 4.1
[4]; lungs
  ratio SUVmax to background, max: 1.8
  ratio SUVmax to background, mean: 1.0
  ratio SUVmax to background, min: 0.6
  ratio SUVmean to background, max: 1.8
  ratio SUVmean to background, mean: 1.0
  ratio SUVmean to background, min: 0.6
[4]; pancreas
  ratio SUVmax to background, max: 6.9
  ratio SUVmax to background, mean: 4.1
  ratio SUVmax to background, min: 2.2
  ratio SUVmean to background, max: 7.8
  ratio SUVmean to background, mean: 4.4
  ratio SUVmean to background, min: 2.3
[4]; parotid gland
  ratio SUVmax to background, max: 46.2
  ratio SUVmax to background, mean: 24.7
  ratio SUVmax to background, min: 11.9
  ratio SUVmean to background, max: 44.6
  ratio SUVmean to background, mean: 25.2
  ratio SUVmean to background, min: 12.4
[4]; patients, PET/CT
  SUVmax mean, bladder: 3.1
  SUVmax mean, bloodpool: 2.8
  SUVmax mean, bone: 2.1
  SUVmax mean, duodenum: 16.4
  SUVmax mean, kidney: 51.9
  SUVmax mean, liver: 9.7
  SUVmax mean, lungs: 1.1
  SUVmax mean, pancreas: 4.2
  SUVmax mean, parotic gland: 24.6
  SUVmax mean, spleen: 11.4
  SUVmax mean, submandibular gland: 28.4
  SUVmean mean, duodenum: 11.0
  SUVmean mean, kidney: 35.5
  SUVmean mean, liver: 7.3
  SUVmean mean, lungs: 0.7
  SUVmean mean, pancreas: 2.8
  SUVmean mean, parotic gland: 16.0
  SUVmean mean, spleen: 8.5
  SUVmean mean, submandibular gland: 19.6
[4]; [5]
  SUVmax mean, background: 1.0
  SUVmean mean, background: 0.7
[4]; [6]
  SUVmean mean, bladder: 2.0 and 2.0±0.8
  SUVmean mean, bloodpool: 1.9 and 1.8
[4]; patients, PET/CT, non-diseased bone
  SUVmean mean, bone: 1.3
[4]; patients, PET/CT, tumor lesions
  SUVmax mean, tumor: 44.0
[4]; patients, PET/CT, tumor lesions, listed as 18F-rhPSMA-7.3
  SUVmean mean, tumor: 32.5±42.7 and 32.5
[4]; spleen
  ratio SUVmax to background, max: 22.4
  ratio SUVmax to background, mean: 11.4
  ratio SUVmax to background, min: 3.6
  ratio SUVmean to background, max: 28.6
  ratio SUVmean to background, mean: 13.3
  ratio SUVmean to background, min: 3.9
[4]; submandibular gland
  ratio SUVmax to background, max: 62.1
  ratio SUVmax to background, mean: 28.2
  ratio SUVmax to background, min: 14.0
  ratio SUVmean to background, max: 62.3
  ratio SUVmean to background, mean: 30.6
  ratio SUVmean to background, min: 15.7
[4]; tumor lesions
  ratio SUVmax to background, max: 321.2
  ratio SUVmax to background, mean: 43.6
  ratio SUVmax to background, min: 1.7
  ratio SUVmean to background, max: 356.4
  ratio SUVmean to background, mean: 50.8
  ratio SUVmean to background, min: 1.8

Source: patent US12377176B2, “Cancer diagnostic imaging agents” (Technische Universität München, priority 2019, dated 2025)
